The target in assay [1] is T1, recombinant human galectin-7 (human, UniProt P47929 1-136).
T1 construct: Prototypic galectin with one CRD; also called hGAL-7; human GAL-7
Briefly: ELISA of the selected nanobody clone on hGAL-7 with His-tagged MBP as control; y axis 'ELISA Ratio'; no concentration given. (In an ELISA, binding on a coated surface is turned into a signal by an enzyme label.)

The target of assay [2] is T1, recombinant human galectin-7. Briefly: phage selection and ELISA (FIG. 3A).
For assay [3] the target is unchanged. Briefly: cell-based or functional assay.
For assay [4] the target is unchanged. Nature of the assay: SPR (BIACore), human GAL-7 on the sensor surface, Nb as analyte. As for the experimental part: SPR analysis. Binding affinities of his-tagged GAL-7-specific Nbs was measured by surface plasmon resonance (SPR) using a BIACore® system. Briefly, a buffer flow was run across the sensor surface, which has previously been coated with human GAL-7, then the Nbs were introduced into the device and allowed to bind to the immobilized antigen. The stability of the binding between GAL-7 and the Nbs was measured and used to calculate the dissociation constant (Kd) of the Nbs for human GAL-7.
On the technique in general: In SPR one partner is held on a chip, and binding of the other changes the refractive index at the surface.

Assay [5] has the same target. Nature of the assay: cell-based or functional assay. This is another data set of the same source.

Where two headings read alike, the source gives them in different places.

T1 sequence (P47929 whole entry): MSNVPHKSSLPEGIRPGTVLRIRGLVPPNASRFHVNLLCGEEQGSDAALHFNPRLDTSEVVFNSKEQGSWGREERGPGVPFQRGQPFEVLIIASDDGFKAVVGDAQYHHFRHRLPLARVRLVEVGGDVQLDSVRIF

B1: Nanobody 218_B04 (VHH)
VHH: EVQLQASGGGFVQPGGSLRLSCAASGRTSSQDIMGWFRQAPGKEREFVSAISDYSGGNVYYADSVKGRFTISRDNSKNTVYLQMNSLRAEDTATYYCAFLGEEKTSWYWGQGTQVTVSS
notes: 175 aa with the tag, so CDR3 has 9 residues, which fits CDR set (a), (e) or (h)
Consider B1, for which the binding result in assay [1] was “binds”.

B2: Nanobody 218_F09 (VHH)
VHH: EVQLQASGGGFVQPGGSLRLSCAASGTTSNGEVMGWFRQAPGKEREFVSAISFGAGSSEYYADSVKGRFTISRDNSKNTVYLQMNSLRAEDTATYYCAASWYHSSIGSMSYWGQGTQVTVSS
notes: 178 aa with the tag, so CDR3 has 12 residues, which fits CDR set (b) or (d)
Consider B2, for which, in assay [1], the binding result was “binds”.

B3: Nanobody 218_D11 (VHH)
VHH: EVQLQASGGGFVQPGGSLRLSCAASGDTSRFDVMGWFRQAPGKEREFVSAISWWSSDHIYYADSVKGRFTISRDNSKNTVYLQMNSLRAEDTATYYCAYGEYPPRMNRRPYWGQGTQVTVSS
notes: as for B2
In the case of B3, the binding result in assay [1] was “binds”.

B4: Nanobody 214_H05 (VHH)
VHH: EVQLQASGGGFVQPGGSLRLSCAASGTTSNSSGMGWFRQAPGKEREFVSAISWDHGILTYYADSVKGRFTISRDNSKNTVYLQMNSLRAEDTATYYCAHGYVHFNMTHRHISDYWGQGTQVTVSS
notes: Humanized synthetic single domain antibody (hs2dAb library, Hybrigenics); 181 aa with the tag, so CDR3 has 15 residues, which fits CDR set (c), (k) or (l)
Take B4: the binding result in assay [1] was “binds”.

B5: Nanobody 219_F02 (VHH)
VHH: EVQLQASGGGFVQPGGSLRLSCAASGSTSYSSTMGWFRQAPGKEREFVSAISFDGTSKPYYADSVKGRFTISRDNSKNTVYLQMNSLRAEDTATYYCAAGEWEALMWPPVHDFWIYYWGQGTQVTVSS
notes: 184 aa with the tag, so CDR3 has 18 residues, which fits CDR set (g) or (i)
For B5, the binding result in assay [1] is reported as “binds”.

B6: Nanobody 219_F09 (VHH)
VHH: EVQLQASGGGFVQPGGSLRLSCAASGAYSFESGMGWFRQAPGKEREFVSAISSDADLFSYYADSVKGRFTISRDNSKNTVYLQMNSLRAEDTATYYCAAFSSGGELSYWGQGTQVTVSS
notes: as for B1
With B6, in assay [1], the binding result is “binds”.

B7: Nanobody 216_D11 (VHH)
VHH: EVQLQASGGGFVQPGGSLRLSCAASGDTSESTSMGWFRQAPGKEREFVSAISRSSTWDAYYADSVKGRFTISRDNSKNTVYLQMNSLRAEDTATYYCAMADIFDHPQNASFMKYWGQGTQVTVSS
notes: 181 aa with the tag, so CDR3 has 15 residues, which fits CDR set (c) or (l)
Consider B7, for which the binding result in assay [1] was “binds”.

B8: Nanobody 219_A01 (VHH)
VHH: EVQLQASGGGFVQPGGSLRLSCAASGGGYDWDAMGWFRQAPGKEREFVSAISSNNNGSRYYADSVKGRFTISRDNSKNTVYLQMNSLRAEDTATYYCAADQYWGQGTQVTVSS
notes: 169 aa with the tag, so CDR3 has 3 residues
Consider B8, for which the binding result in assay [2] is given as “binds”.

B9: Nanobody 216_A01 (SEQ ID NO: 6) (VHH)
VHH: EVQLQASGGGFVQPGGSLRLSCAASGRYSRIEIMGWFRQAPGKEREFVSAISSTPSSNEYYADSVKGRFTISRDNSKNTVYLQMNSLRAEDTATYYCARWDWHSWDTYWGQGTQVTVSS
notes: Humanized synthetic single domain antibody, his-tagged, made in E. coli; 175 aa with the tag; also called NB #2
Turning to B9, the “IC50 (read off the curve): inhibition of hGAL-7-induced apoptosis of Jurkat T cells (Annexin V, flow cytometry)” value in assay [3] is roughly 2 µM. Also, in assay [4], the Kd (as a rule, the concentration at which binding is half-saturated) came to 0.123 µM; the koff (in general, a measure of how fast the partners let go of each other) worked out at 0.00348 s⁻¹; the on-rate (kon) – broadly, the second-order rate constant of association – was found to be 28400 M⁻¹ s⁻¹. In assay [5], the “IC50 (read off the curve): inhibition of hGAL-7-induced apoptosis of Jurkat T cells (Annexin V, flow cytometry)” value was roughly 3 µM.

B10: Nanobody 217_C02 (SEQ ID NO: 52) (VHH)
VHH: EVQLQASGGGFVQPGGSLRLSCAASGTYSSIEVMGWFRQAPGKEREFVSAISFEPNEFAYYADSVKGRFTISRDNSKNTVYLQMNSLRAEDTATYYCASSVEWRQNGKPNTASYWGQGTQVTVSS
notes: Humanized synthetic single domain antibody, his-tagged, made in E. coli; 181 aa with the tag; also called NB #12
Turning to B10, in assay [4], the equilibrium dissociation constant (Kd) worked out at 1.5 µM, the koff was determined as 0.00165 s⁻¹ and the kon was 1100 M⁻¹ s⁻¹.

B11: Nanobody 218_A01 (VHH)
VHH: EVQLQASGGGFVQPGGSLRLSCAASGAGSRSDVMGWFRQAPGKEREFVSAISGFWGWTTYYADSVKGRFTISRDNSKNTVYLQMNSLRAEDTATYYCALGGAPGQTGYWGQGTQVTVSS
notes: as for B1
In the case of B11, in assay [1], the binding result is reported as “binds”.

B12: Nanobody 219_H09 (VHH)
VHH: EVQLQASGGGFVQPGGSLRLSCAASGSTSYGETMGWFRQAPGKEREFVSAISYYSTRKPYYADSVKGRFTISRDNSKNTVYLQMNSLRAEDTATYYCAIVAYIYADGVRGYHQKIDYWGQGTQVTVSS
notes: as for B5
With B12, the binding result in assay [1] is “binds”.

For the origin of these results see patent US20220089746A1 (INSTITUT NATIONAL DE LA RECHERCHE SCIENTIFIQUE, published 2022).
